# US20090252683A1 (Amgen, published 2009)
# T1: human EpCAM antigen on Kato III cells or human EpCAM transfected CHO cells (human, UniProt P16422 24-265)
# T1 construct: 137 holds only the extracellular portion; the protein stood whole on cells
# T1 sequence: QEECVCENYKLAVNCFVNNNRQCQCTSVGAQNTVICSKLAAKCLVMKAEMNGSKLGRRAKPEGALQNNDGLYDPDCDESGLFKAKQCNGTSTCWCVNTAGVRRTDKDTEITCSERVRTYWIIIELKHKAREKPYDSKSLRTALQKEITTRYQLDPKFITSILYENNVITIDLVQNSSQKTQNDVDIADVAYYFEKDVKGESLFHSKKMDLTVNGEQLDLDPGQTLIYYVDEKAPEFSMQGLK
# T2: cynomolgus EpCAM antigen on transfected CHO cells (cynomolgus, UniProt Q1WER1 24-265 (rhesus entry))
# T2 construct: 48 holds the extracellular portion
# T2 sequence: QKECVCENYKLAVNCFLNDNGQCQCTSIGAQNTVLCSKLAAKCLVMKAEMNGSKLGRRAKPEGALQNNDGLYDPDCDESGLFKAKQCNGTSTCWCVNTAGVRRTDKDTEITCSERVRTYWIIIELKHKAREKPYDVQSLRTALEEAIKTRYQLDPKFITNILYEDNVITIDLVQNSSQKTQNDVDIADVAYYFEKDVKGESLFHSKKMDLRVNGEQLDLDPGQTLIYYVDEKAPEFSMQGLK
# Columns and labels:
# [1] = molecular target: T1, human EpCAM antigen on Kato III cells …; test: FACS, Kato III cells (FIG. 8A), anti-His detection
# Text: (§1) FIG. 8: FACS assay for binding of 2G8LH×SEQ ID NO. 12, 2G8LH×SEQ ID NO. 10, 2G8LH×SEQ ID NO. 16, 2G8LH×SEQ ID NO. 14, 2G8HL×SEQ ID NO. 12, 2G8HL×SEQ ID NO. 10, 2G8HL×SEQ ID NO. 16 and 2G8HL×SEQ ID NO. 14 on Kato III (FIG. 8A) cells or cynomolgus EpCAM transfected CHO cells (FIG. 8B) and HPB-ALL cells. Antigen binding was clearly detectable for the anti EpCAM specificities as well as for the anti CD3 specificities. As a negative control for binding to cynomolgus EpCAM, the 5-10LH×SEQ ID NO.
# (§2) Binding of the bifunctional constructs from cell culture supernatants or binding of purified bifunctional constructs to the human EpCAM antigen on Kato III cells or cynomolgus EpCAM transfected CHO cells and to the CD3 antigen on HPB-ALL cells was tested using an FACS assay. For that purpose 2.5×10⁵ cells were incubated with 50 μl supernatant or with 5 μg/ml of the purified constructs in 50 μl PBS with 2% FCS. The binding of the constructs was detected with an anti-His antibody (Penta-His Antibody, BSA free, obtained from Qiagen GmbH, Hilden, FRG) at 2 μg/ml in 50 μl PBS with 2% FCS. […] The samples were measured on a FACSscan (BD biosciences, Heidelberg, FRG). Antigen binding was clearly detectable for the anti EpCAM specificities as well as for the anti CD3 specificities (see FIG. 8). As a negative control for binding to cynomolgus EpCAM, the 5-10LH×SEQ ID NO. […] The 5-10LH part only binds to human EpCAM.
# [2] = molecular target: T2, cynomolgus EpCAM antigen on transfected …; test: FACS, cynomolgus EpCAM transfected CHO cells (FIG. 8B), anti-His detection
# Text: as §1, §2
# [3] = molecular target: T2, cynomolgus EpCAM antigen on transfected …; test: cell-based or functional assay
# [4] = molecular target: cynomolgus CD3 antigen on cynomolgus PBMC / macaque T cells (Macaca fascicularis (cynomolgus), UniProt Q95LI5 22-117; Q95LI7 23-110; Q95LI8 22-103); test: cell-based or functional assay
# cynomolgus CD3 antigen on cynomolgus PBMC / macaque T cells, sequence (Q95LI5 22-117, chain 1 of 3): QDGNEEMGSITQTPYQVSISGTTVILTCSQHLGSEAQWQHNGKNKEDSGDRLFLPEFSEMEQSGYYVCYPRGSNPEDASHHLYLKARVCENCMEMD
# cynomolgus CD3 antigen on cynomolgus PBMC / macaque T cells, sequence (Q95LI7 23-110, chain 2 of 3): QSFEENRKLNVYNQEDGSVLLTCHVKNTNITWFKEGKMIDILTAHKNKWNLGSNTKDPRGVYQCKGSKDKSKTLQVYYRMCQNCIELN
# cynomolgus CD3 antigen on cynomolgus PBMC / macaque T cells, sequence (Q95LI8 22-103, chain 3 of 3): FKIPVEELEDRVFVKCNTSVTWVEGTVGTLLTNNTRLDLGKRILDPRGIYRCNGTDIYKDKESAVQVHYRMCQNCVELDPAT
binding result [1],binding result [2],Binder,"EC50 (half maximal killing), FACS-based cytotoxicity, cynomolgus EpCAM transfected CHO target cells, cynomolgus PBMC effector cells [3] [µg/mL]","EC50 (half maximal killing), FACS-based cytotoxicity, cynomolgus EpCAM transfected CHO target cells, human PBMC effector cells [3] [µg/mL]","EC50 (half maximal killing), FACS-based cytotoxicity, cynomolgus EpCAM transfected CHO target cells, cynomolgus PBMC effector cells [4] [µg/mL]"
binds,binds,2G8HL×SEQ ID NO. 10 bispecific single chain antibody (bispecific antibody) EVQLQQSGAELVRSGASVKLSCTASGFNIKDYYLHWVKQRPEQGLEWIAWIDLENGDIKYAPKFQGKATITADTSSNTAYLQLSSLTSEDTAVYYCNPYYYGSNYDYAMDYWGQGTSVTVSSGGGGSGGGGSGGGGSDVVMTQTPLTLSVTIGQPASISCKSSQSLLYSNGKTYLNWILQRPGQSPKRLIYLVSKLDSGVPDRFTGSGSGTDFTLKISRVEAEDLGVYYCVQGTHFPLTFGAGTKLELKSGGGGSEVKLLESGGGLVQPKGSLKLSCAASGFTFNTYAMNWVRQAPGKGLEWVARIRSKYNNYATYYADSVKDRFTISRDDSQSILYLQMNNLKTEDTAMYYCVRHGNFGNSYVSWFAYWGQGTLVTVSAGGGGSGGGGSGGGGSQAVVTQESALTTSPGETVTLTCRSSTGAVTTSNYANWVQEKPDHLFTGLIGGTNKRAPGVPARFSGSLIGDKAALTITGAQTEDEAIYFCALWYSNLWVFGGGTKLTVLHHHHHH,,,
binds,binds,2G8LH×SEQ ID NO. 16 bispecific single chain antibody (bispecific antibody) DVVMTQTPLTLSVTIGQPASISCKSSQSLLYSNGKTYLNWILQRPGQSPKRLIYLVSKLDSGVPDRFTGSGSGTDFTLKISRVEAEDLGVYYCVQGTHFPLTFGAGTKLELKGGGGSGGGGSGGGGSEVQLQQSGAELVRSGASVKLSCTASGFNIKDYYLHWVKQRPEQGLEWIAWIDLENGDIKYAPKFQGKATITADTSSNTAYLQLSSLTSEDTAVYYCNPYYYGSNYDYAMDYWGQGTSVTVSSGGGGSQVVLTQSPAIMSAFPGEKVTMTCSASSSVSYMNWYQQKSGTSPKRWIYDSSKLASGVPARFSGSGSGTSYSLTISSMETEDAATYYCQQWSRNPPTFGGGTKLQITGGGGSGGGGSGGGGSQVQLQQSGAELARPGASVKMSCKASGYTFTRSTMHWVKQRPGQGLEWIGYINPSSAYTNYNQKFKDKATLTADKSSSTAYMQLSSLTSEDSAVYYCASPQVHYDYNGFPYWGQGTLVTVSAHHHHHH,,,
binds,binds,2G8LH×SEQ ID NO. 12 bispecific single chain antibody (bispecific antibody) DVVMTQTPLTLSVTIGQPASISCKSSQSLLYSNGKTYLNWILQRPGQSPKRLIYLVSKLDSGVPDRFTGSGSGTDFTLKISRVEAEDLGVYYCVQGTHFPLTFGAGTKLELKGGGGSGGGGSGGGGSEVQLQQSGAELVRSGASVKLSCTASGFNIKDYYLHWVKQRPEQGLEWIAWIDLENGDIKYAPKFQGKATITADTSSNTAYLQLSSLTSEDTAVYYCNPYYYGSNYDYAMDYWGQGTSVTVSSGGGGSQAVVTQESALTTSPGETVTLTCRSSTGAVTTSNYANWVQEKPDHLFTGLIGGTNKRAPGVPARFSGSLIGDKAALTITGAQTEDEAIYFCALWYSNLWVFGGGTKLTVLGGGGSGGGGSGGGGSEVKLLESGGGLVQPKGSLKLSCAASGFTFNTYAMNWVRQAPGKGLEWVARIRSKYNNYATYYADSVKDRFTISRDDSQSILYLQMNNLKTEDTAMYYCVRHGNFGNSYVSWFAYWGQGTLVTVSAHHHHHH,,,
binds,,2G8LH×SEQ ID NO. 10 bispecific single chain antibody (bispecific antibody) DVVMTQTPLTLSVTIGQPASISCKSSQSLLYSNGKTYLNWILQRPGQSPKRLIYLVSKLDSGVPDRFTGSGSGTDFTLKISRVEAEDLGVYYCVQGTHFPLTFGAGTKLELKGGGGSGGGGSGGGGSEVQLQQSGAELVRSGASVKLSCTASGFNIKDYYLHWVKQRPEQGLEWIAWIDLENGDIKYAPKFQGKATITADTSSNTAYLQLSSLTSEDTAVYYCNPYYYGSNYDYAMDYWGQGTSVTVSSGGGGSEVKLLESGGGLVQPKGSLKLSCAASGFTFNTYAMNWVRQAPGKGLEWVARIRSKYNNYATYYADSVKDRFTISRDDSQSILYLQMNNLKTEDTAMYYCVRHGNFGNSYVSWFAYWGQGTLVTVSAGGGGSGGGGSGGGGSQAVVTQESALTTSPGETVTLTCRSSTGAVTTSNYANWVQEKPDHLFTGLIGGTNKRAPGVPARFSGSLIGDKAALTITGAQTEDEAIYFCALWYSNLWVFGGGTKLTVLHHHHHH,0.0398,0.0011,0.0398
binds,,2G8HL×SEQ ID NO. 12 bispecific single chain antibody (bispecific antibody) EVQLQQSGAELVRSGASVKLSCTASGFNIKDYYLHWVKQRPEQGLEWIAWIDLENGDIKYAPKFQGKATITADTSSNTAYLQLSSLTSEDTAVYYCNPYYYGSNYDYAMDYWGQGTSVTVSSGGGGSGGGGSGGGGSDVVMTQTPLTLSVTIGQPASISCKSSQSLLYSNGKTYLNWILQRPGQSPKRLIYLVSKLDSGVPDRFTGSGSGTDFTLKISRVEAEDLGVYYCVQGTHFPLTFGAGTKLELKSGGGGSQAVVTQESALTTSPGETVTLTCRSSTGAVTTSNYANWVQEKPDHLFTGLIGGTNKRAPGVPARFSGSLIGDKAALTITGAQTEDEAIYFCALWYSNLWVFGGGTKLTVLGGGGSGGGGSGGGGSEVKLLESGGGLVQPKGSLKLSCAASGFTFNTYAMNWVRQAPGKGLEWVARIRSKYNNYATYYADSVKDRFTISRDDSQSILYLQMNNLKTEDTAMYYCVRHGNFGNSYVSWFAYWGQGTLVTVSAHHHHHH,0.0603,0.00364,0.0603
binds,binds,2G8LH×SEQ ID NO. 14 bispecific single chain antibody (bispecific antibody) DVVMTQTPLTLSVTIGQPASISCKSSQSLLYSNGKTYLNWILQRPGQSPKRLIYLVSKLDSGVPDRFTGSGSGTDFTLKISRVEAEDLGVYYCVQGTHFPLTFGAGTKLELKGGGGSGGGGSGGGGSEVQLQQSGAELVRSGASVKLSCTASGFNIKDYYLHWVKQRPEQGLEWIAWIDLENGDIKYAPKFQGKATITADTSSNTAYLQLSSLTSEDTAVYYCNPYYYGSNYDYAMDYWGQGTSVTVSSGGGGSQVQLQQSGAELARPGASVKMSCKASGYTFTRSTMHWVKQRPGQGLEWIGYINPSSAYTNYNQKFKDKATLTADKSSSTAYMQLSSLTSEDSAVYYCASPQVHYDYNGFPYWGQGTLVTVSAGGGGSGGGGSGGGGSQVVLTQSPAIMSAFPGEKVTMTCSASSSVSYMNWYQQKSGTSPKRWIYDSSKLASGVPARFSGSGSGTSYSLTISSMETEDAATYYCQQWSRNPPTFGGGTKLQITHHHHHH,,,
binds,binds,2G8HL×SEQ ID NO. 14 bispecific single chain antibody (bispecific antibody) EVQLQQSGAELVRSGASVKLSCTASGFNIKDYYLHWVKQRPEQGLEWIAWIDLENGDIKYAPKFQGKATITADTSSNTAYLQLSSLTSEDTAVYYCNPYYYGSNYDYAMDYWGQGTSVTVSSGGGGSGGGGSGGGGSDVVMTQTPLTLSVTIGQPASISCKSSQSLLYSNGKTYLNWILQRPGQSPKRLIYLVSKLDSGVPDRFTGSGSGTDFTLKISRVEAEDLGVYYCVQGTHFPLTFGAGTKLELKSGGGGSQVQLQQSGAELARPGASVKMSCKASGYTFTRSTMHWVKQRPGQGLEWIGYINPSSAYTNYNQKFKDKATLTADKSSSTAYMQLSSLTSEDSAVYYCASPQVHYDYNGFPYWGQGTLVTVSAGGGGSGGGGSGGGGSQVVLTQSPAIMSAFPGEKVTMTCSASSSVSYMNWYQQKSGTSPKRWIYDSSKLASGVPARFSGSGSGTSYSLTISSMETEDAATYYCQQWSRNPPTFGGGTKLQITHHHHHH,,,
binds,binds,2G8HL×SEQ ID NO. 16 bispecific single chain antibody (bispecific antibody) EVQLQQSGAELVRSGASVKLSCTASGFNIKDYYLHWVKQRPEQGLEWIAWIDLENGDIKYAPKFQGKATITADTSSNTAYLQLSSLTSEDTAVYYCNPYYYGSNYDYAMDYWGQGTSVTVSSGGGGSGGGGSGGGGSDVVMTQTPLTLSVTIGQPASISCKSSQSLLYSNGKTYLNWILQRPGQSPKRLIYLVSKLDSGVPDRFTGSGSGTDFTLKISRVEAEDLGVYYCVQGTHFPLTFGAGTKLELKSGGGGSQVVLTQSPAIMSAFPGEKVTMTCSASSSVSYMNWYQQKSGTSPKRWIYDSSKLASGVPARFSGSGSGTSYSLTISSMETEDAATYYCQQWSRNPPTFGGGTKLQITGGGGSGGGGSGGGGSQVQLQQSGAELARPGASVKMSCKASGYTFTRSTMHWVKQRPGQGLEWIGYINPSSAYTNYNQKFKDKATLTADKSSSTAYMQLSSLTSEDSAVYYCASPQVHYDYNGFPYWGQGTLVTVSAHHHHHH,,,
